Test results reported in paper PMC7509637 (Advanced Science, 2020).
Entries after “also recorded” stand apart in the source; their conditions may differ.

What was measured:
adult zebrafish brain = experiment: IHC for Aβ deposition in brain of adult zebrafish; format: in vivo, zebrafish (AB, Danio rerio); conditions: two days postinjection (so in the source)
Method: (§1) Adult zebrafish (10 months) were employed for the study. Prior to microinjection, adult zebrafish were anesthetized by placing them in a beaker filled with ice‐chilled tricaine (0.01% in Holtfreter's buffer) for 20 s. […] The needle penetrated between left and right telencephalon for not more than 1 mm and injection volume was 1 µL. The syringe was washed with ethanol and PBS in between the injections. The injections were made under a stereomicroscope and fish were held in place with forceps. After microinjection, the fish was placed back in the water tank for recovery.
The head of the fish was separated at pectoral fin point with a sharp blade and fixed in paraformaldehyde as described in the “Animal husbandry and ethics statement” section. The fixed heads were dehydrated by dipping in gradual concentration of ethanol, i.e., 20%, 40%, 60%, 80%, and 100% with 10 min at each step. The heads were treated with 20% sucrose overnight, mounted with Tissue Trek OCT mounting medium at −20 °C. The heads were then sectioned into 20 × 10^−6 M thick section with a cryostat. The sections were mounted on a gelatinized glass slide and immunostained with antibodies. The sections were dried, washed thrice in PBS (pH 7.4), and TritonX‐100 (0.05% in PBS) for 5 min each. […] The sections were imaged by a fluorescence microscope and fluorescence intensities were measured from the images with Fiji ImageJ analysis.

adult zebrafish [1] = experiment: Behavioral pathology of adult zebrafish (swimming); format: in vivo, zebrafish (AB, Danio rerio)
Method: Adult zebrafish (10 months) were employed for the study. Prior to microinjection, adult zebrafish were anesthetized by placing them in a beaker filled with ice‐chilled tricaine (0.01% in Holtfreter's buffer) for 20 s. The samples of Aβ alone and Aβ with FapCS or bacterial biofilm fragments were injected to the cerebroventricular space of adult fish with a 1 µL Hamilton glass syringe. The concentration of the Aβ peptide was 40 × 10^−6 M (in PBS, pH 7.4) while FapCS or biofilm fragments were included at a 10:1 ratio (Aβ:FapCS or biofilm fragments). The needle penetrated between left and right telencephalon for not more than 1 mm and injection volume was 1 µL. The syringe was washed with ethanol and PBS in between the injections. The injections were made under a stereomicroscope and fish were held in place with forceps. After microinjection, the fish was placed back in the water tank for recovery.
The behavioral pathology of the adult fish was observed after 4 d and 2 weeks of microinjection. The behavioral pathology of movement frequency and traveled distance was recorded with a zebrabox (Viewpoint) in a 1 L swimming tank. For cognitive function test, the tank was hypothetically divided into two parts of arena 1 and arena 2, and arena 2 was labeled by pasting a red paper at the bottom of the tank. The behavior of the untreated fish was recorded as positive control, in both arenas. Then fish from each sample were trained to avoid swimming in arena 2 by shocking with a 9 V battery electrodes, whenever the fish swim into arena 2. The fish were allowed to familiarize with the tank for 30 min and then trained for 20 min. After training, the swimming behavior of the fish was recorded in whole tank and then analyzed for arena 1 versus arena 2 with software EthnoVision X1.
The observations were made for 1 min with three fish per samples. The measurements were made three times in a day and then averaged together. […] Movement trajectories were also recorded with the instrument's camera.

adult zebrafish [2] = experiment: Cognitive memory function of adult zebrafish (arena 2 avoidance); format: in vivo, zebrafish (AB, Danio rerio); conditions: FapCS alone
Method: as §1
The behavioral pathology of the adult fish was observed after 4 d and 2 weeks of microinjection. The behavioral pathology of movement frequency and traveled distance was recorded with a zebrabox (Viewpoint) in a 1 L swimming tank. For cognitive function test, the tank was hypothetically divided into two parts of arena 1 and arena 2, and arena 2 was labeled by pasting a red paper at the bottom of the tank. The behavior of the untreated fish was recorded as positive control, in both arenas. […] After training, the swimming behavior of the fish was recorded in whole tank and then analyzed for arena 1 versus arena 2 with software EthnoVision X1.
The observations were made for 1 min with three fish per samples. […] Movement trajectories were also recorded with the instrument's camera.

Aβ monomers = experiment: Isothermal titration calorimetry (ITC); format: binding; conditions: Aβ 200 × 10^−6 M into 20 × 10^−6 M seeds, 0.1% NH4OH, 25 °C
Method: ITC (Malvern MicroCal iTC200) was used to explore the interaction between Aβ monomers and oligomers (Aβo) with FapCS. Sample solutions were degassed at 25 °C while stirring (100 rpm). Aβ (200 × 10^−6 M, 40 µL) was filled into the syringe while FapCS or bLgS (20 × 10^−6 M, 200 µL) were filled in the cell (coin shaped). 0.1% NH4OH buffer solution was used for both solutions. Aβ was injected into the cell at an injection volume of 2 µL at the duration of 4 s and with a spacing of 180 s. First injection was 0.2 µL for 0.4 s duration and a total of 16 injections were programed. The heat exchange was recorded with a Microcal analysis (origin v7) software. The heat of dilution (Aβ against buffer) was subtracted from the interaction heat of samples. The acquired curves were fitted to a sequential binding model and thermodynamic parameters of binding energy (ΔH), free energy (ΔG), and entropic factor (TΔS) were calculated. Aβo for the ITC experiments was prepared by incubating Aβ aqueous solution (200 × 10^−6 M) at 4 °C for 48 h.^[ ^65 ^]

Aβ amyloid fibrils = experiment: STED microscopy of FapCS with Aβ fibrils; conditions: FapCS labeled with Alexa 647, ThT-labeled Aβ fibrils, 12 h
Method: STED microscopy was employed to study the interaction of FapCS with Aβ. FapCS was labeled with Alexa 647 NHS ester via carbodiimide coupling reaction (1:1 molar ratio) in PBS (pH 8) for a duration of 5 h. The labeled fragments were purified via centrifugal filters ([…]). Labeled FapCS was incubated with Aβ at the same molar ratio as for the ThT assay. After 12 h of incubation, the FapCS‐seeded Aβ fibrils were incubated with ThT dye (100 × 10^−6 M) for 30 min to label the Aβ backbone and then purified via centrifugal filters ([…]). A drop of 20 µL of the sample was placed on a poly‐L‐lysine coated coverslip, flipped on a glass slide and then imaged under STED microscope. Alexa and ThT fluorescence were imaged under the excitations of 647 and 488 nm and emissions of 665 and 525 nm, respectively.

Aβ = molecular target: T1, Aβ (Homo sapiens, UniProt P05067); experiment: Static light scattering (SLS) of Aβ fibrillar growth; format: biochemical; conditions: ratio as for ThT assay, Malvern Zetasizer Nano, n = 3
T1 construct: purchased Anaspec Inc
Method: Increases in the size of Aβ in the presence and absence of FapCS or bLgS were monitored by SLS. Solution of Aβ with FapCS or bLgS, at a similar ratio as for the ThT assay, was prepared and incubated. SLS measurements were performed at different time intervals using a Malvern Zetasizer Nano. The parameters were fixed at 7 for attenuator and 4.20 mm for cell position. Quartz cells with low volume capacity (100 µL) were used. The light scattering intensities (kilo counts per sec) and the refractive indices of the samples, buffer alone and toluene were measured.

Aβ fibrils = experiment: AFM of fibrils, FiberApp statistical analysis; conditions: compared with the control
Method: Aβ incubated in the presence or absence of FapCS, FapC monomers, FapC fibrils or bLgS were subjected to TEM imaging. After incubation for 12 h, a drop of sample was applied on a glow‐discharged carbon‐coated copper grid. After 1 min, the sample was blotted and then negatively stained with uranyl acetate (1%) for 30 s. The dried grid was then imaged with a Technei F20 TEM at 200 kV. For AFM, a drop of sample was placed on freshly cleaved mica surface and rinsed with water after 2 min and dried with pressurized air. The sample was scanned with an AFM (Nanoscope VIII Multimode Scanning Force Microscopes, Bruker), covered with an acoustic hood to minimize the vibrational noise. Images were acquired under the tapping mode with a silicon nitride cantilever (Bruker). AFM images were processed with Nanoscope Analysis 1.5 software to flatten the background and to calculate the statistical parameters.

[3] = 2 weeks postinjection, Aβ 1 µL, 40 × 10^−6 M, n = 3 per group, three groups

Molecule | Aβ deposition in brain (in words) (adult zebrafish brain) | distance traveled (adult zebrafish [1]; [3]) [cm per min] | movement frequency (adult zebrafish [1]; [3]) [per min] | swimming behavior (in words) (adult zebrafish [1]; 4 d postinjection) | cognitive memory function (in words), time not stated (adult zebrafish [2]) | binding to Aβ by ITC (in words) (Aβ monomers) | interaction with Aβ fibrils by STED (Aβ amyloid fibrils) | Aβ fibrillar growth by SLS (Aβ) | rise in fibrillar diameter of Aβ upon seeding vs control (Aβ fibrils) [%]
amyloid beta [Aβ] | did not render any deposition in the fish brain | 57 ± 6.9 | 6 ± 2 | did not produce significant difference in the swimming behavior compared to the buffer control |  |  |  |  | 
FapCS: FapC seeds obtained by sonication of mature FapC fibrils (P. aeruginosa) (protein) GNEGGWHPPKPNPQSNNKGGATALVVDTQQNYNNKVSNFGTLNNASVSGSIKDASGNVGVNVAAGDNNQQANAAALASADASFVFGTATASTSVLQSGYGNTLNNYSNPNTASLSNSANNVSGNLGVNVAAGNFNQQKNDLAAAVSNGQYSTAGSAASQTSTGNTTVNSANYAYGGTYVSLKLNADGSYKGTSDQIGDVYLDTWEGQTHPGGSNTGHIDVDSQAQGAKDLNHDGGAFAFKEKGDVDLKGTVSGFIPAIVGFKTPVTNNASLSNSLQNVSGNVGVNIAAGGGNQQSNSLSIAAGCSSCPAGGESLGF |  |  |  |  | did not induce any cognitive deficiencies | weak but favorable interaction; also recorded: favorable binding with Aβ | adsorption of FapCS (labeled with Alexa 647) onto Aβ amyloid fibrils; also recorded: intercalation of FapCS inside the Aβ fibrils; also recorded: adsorbed onto or integrated into Aβ fibrils | significantly more rapid Aβ fibrillar growth; also recorded: rapid growth in the size of Aβ fibrils | 37
